Experimental data: patent US8669347B2, “Truncated variant of the mammalian target for rapamycin (MTOR) protein” (UCL Business PLC, priority 2007, dated 2014)

Key:
[1] = tested on: 4E-BP1; assay: mTOR in vitro kinase assay, 4E-BP1 substrate; type: biochemical; conditions: FLAG immunoprecipitate from Hek293 cells, recombinant 4E-BP1 substrate, compared with mTORα
Method: (§1) HEK293 cells were transfected with pcDNA3.1 or pcDNA 3.1 mTORβ. One day later, cells were starved for 24 hours and than stimulated with 10% fetal bovine serum for 1 hour. Rapamycin (10 nM) was added 30 minutes before stimulation. Cells were lysed, resolved by SDS-PAGE and immunobloted with the C-terminal anti-mTOR and pS2448 mTOR antibodies. […] Two days later, cells were lysed and immunoprecipitated with anti-FLAG antibody. The immune complexes were used in mTOR in vitro kinase assay with His-4E-BP1 and His-S6K1C as substrates. Kinase reactions were resolved by SDS-PAGE and immunoblotted with phosphospecific antibodies to 4E-BP1 p65 and S6K1 p389. The level of immunoprecipitated FLAG-mTORα and FLAG-mTORβ was measured by Western blotting with anti-FLAG.
(§2) Is mTORβ able to phosphorylate S6K and 4E-BP1, which are the main physiological substrates for mTORα? […] The immune complexes were then used in mTOR kinase reactions, containing cold ATP and recombinant 4E-BP1 or His-S6K1C. The kinase reactions were resolved by SDS-PAGE and immunoblotted with phosphospecific antibodies pT389-S6K1 and pS65-4E-BP1.
(§3) mTOR in vitro kinase assay was performed as published previously (Kim et al. 2002). […] The reactions were stopped by adding 5× sample buffer and resolved by SDS-PAGE and analyzed by immunoblotting.

[2] = tested on: Hek293 cells; assay: BrdU pulse-chase cell cycle analysis by FACS; type: cell-based, human; conditions: overexpressing cells vs mTORα or control (EGFP) cells; BrdU 30 minutes, chased 24 hours
Method: HEK293 cells stably overexpressing mTORβ, mTORα or EGFP were pulse labeled with BrdU for 30 minutes and chased every 2 hours for 24 hours. The incorporation of BrdU was measured by FACS analysis. Duration of G1, S and G2 phases of cell cycle observed for each cell line is presented on graph. SD, p=0.05.
To further investigate the role of mTORβ in the cell cycle, Hek293 cells overexpressing mTORβ, mTORα or EGFP were pulse labeled with BrdU for 30 minutes and chased every 2 hours for 24 hours. Incorporation of BrdU into the cells was measured by FACS analysis. The duration of the G1, S and G2 phases of cell cycle observed for each cell line was determined (see FIG. 12). The duration of S and G2 phases were similar in all three cell groups. However, the duration of the G1 phase was shorter in the mTORβ overexpressing cells than in the mTORα or control cells.

[3] = tested on: Raptor, Rictor, and GβL; assay: Co-immunoprecipitation with mTOR binding partners in HEK293 cells; conditions: anti-FLAG immunoprecipitation from transfected HEK293 cells
Method: HEK293 cells were transfected with pcDNA3.1-mTORβ-FLAG and pRK-Raptor-HA or pcDNA3.1-mTORβ-FLAG and pRK-Rictor-Myc or pcDNA3.1-mTORβ-FLAG and pcRK-GβL. The supernatants of lysed cells were immunoprecipitated with anti-FLAG antibody or control nonspecific antibody. The immune complexes or total cell lysates from transfected cells (15 μg) were resolved by SDS-PAGE and probed in Western blotting with anti-HA, anti-Rictor, or anti-GβL antibodies.
HEK293 cells were washed with ice-cold phosphate-buffered saline (PBS) and extracted with the lysis buffer containing 50 mM HEPES (pH 7.5), 150 mM NaCl, 1% (v/v) Triton X100, 2 mM EDTA, 50 mM sodium fluoride, 10 mM sodium pyrophosphate, 1 mM sodium orthovanadate, and a mixture of protease inhibitors (Roche Applied Science). Whole-cell extracts were centrifuged at 10,000×g for 30 minutes at 4° C. Endogenous or transiently expressed proteins were immunoprecipitated with corresponding antibodies immobilized on protein A-Sepharose beads (Amersham Biosciences) for 3 hours at 4° C. The immune complexes were then washed once with Tris-buffered saline containing 0.05% Tween 20 and the Wash Buffer 1 (50 mM HEPES [pH 7.5], 40 mM NaCl, and 2 mM EDTA) with 1% Triton X-100, Wash Buffer 1 with 500 mM LiCl and 0.5% Triton X-100, Wash Buffer 1 with 500 mM LiCl, and Wash Buffer 2 (50 mM HEPES [pH 7.5] and 150 mM NaCl). […]

[4] = tested on: Hek293 stable cell lines; assay: Serum starvation cell survival, Trypan Blue dye exclusion assay; type: cell-based, human; conditions: stable overexpressing lines serum starved for 60 hours
Method: Hek293 stable cell lines, overexpressing mTORβ wt, mTORα wt, mTORβ kinase dead or EGFP were serum starved for 60 hours. Cell survival was assessed by the Trypan Blue dye exclusion assay. Data are means±SE of 5 experiments. * P value≦0.01.
The effects of mTORβ in serum starved cells were also assessed. Hek293 stable cell lines, overexpressing mTORβ wt, mTORα wt, mTORβ kinase dead or EGFP were serum starved for 60 hours. Cell survival was assessed by the Trypan Blue dye exclusion assay.

[5] = tested on: Hek293 cells; assay: Recovery from Sorbitol-induced stress; type: cell-based, human; conditions: overexpressing cells, compared with mTORα overexpressing cells
[6] = tested on: c-Myc; assay: Western blot of c-Myc protein level in transfected HEK293 cells; type: cell-based, human; conditions: HEK293 transiently transfected, lysed two days after transfection
Method: (§4) Hek293 stable cell lines, over-expressing mTORβ wt, mTORα wt or EGFP were seeded into a 96 well plate at various densities (250, 500, 1000 and 2000 cells per well) and grown under standard conditions for 7 days. Cell numbers were than measured in each well by a Resosurin based assay. Normalized growth curves for each cell line were calculated using data from six independent experiments (A). Western blot analysis of total cell lysates of stable cell lines with antibodies to c-myc and its transcription targets (B). The level of proteins was densitometrically measured, actin normalized and folds were calculated against EGFP expressing stable cell line (C).
(§5) HEK293 stable cell lines, overexpressing mTORβ wt, mTORβ kinase-dead or EGFP were seeded into 96 well plate at various densities (1000, 2000, 4000 and 8000 cells per well) and grown under standard conditions for 5 days. Cell numbers were then measured in each well by Resazurin based assay. Normalized growth curves for each cell line were calculated using data from six independent experiments (A). Western blot analysis of total cell lysates of stable cell lines with antibodies to c-myc and its transcription targets. The level of proteins was densitometrically measured, actin normalized and folds were calculated against EGFP expressing stable cell line (B). […]

[7] = tested on: Hek293 cells; assay: Colony formation in agarose (oncogenic potential); type: cell-based, human; conditions: stably overexpressing cells, 14 days, MTT stain, compared with mTORα and control cells
Method: HEK293 cells stably overexpressing mTORβ, mTORα or EGFP were plated in a thin layer of agarose in culture medium. After 14 days, colonies were stained using MTT (A). Colonies were counted using Quantity One Software (Bio-Rad) and folds were plotted (B). Data are means±SE of 4 experiments. * P value≦0.01.
To further investigate the effect of mTORβ expression on cell oncogenic potential, Hek293 cells stably overexpressing mTORβ, mTORα or EGFP were plated in a thin layer of agarose in culture medium. After 14 days, colonies were stained using MTT (see FIG. 14A). Colonies were counted using quantity 1 software (Bio-Rad) and folds were plotted (see FIG. 14B).

[8] = tested on: S6K1; assay: mTOR in vitro kinase assay, His-S6K1C substrate; type: biochemical; conditions: FLAG immunoprecipitate from Hek293 cells, compared with mTORα
Method: as §1, §2, §3

[9] = tested on: Hek293 stable cell lines; assay: Cell proliferation assay (Resazurin based) of Hek293 stable cell lines; parameters: species or system human; conditions: six independent studies
Method: as §4, §5

B1: mTORβ: splice form of mTOR: fusion of amino acids 1 to 23 and 1867 to 2549 of mTORα, 706 amino acids (SEQ ID NO: 2) (protein, listed as Homo sapiens)
chain: MLGTGPAAATTAATTSSNVSVLQKKVTEDLSKTLLMYTVPAVQGFFRSISLSRGNNLQDTLRVLTLWFDYGHWPDVNEALVEGVKAIQIDTWLQVIPQLIARIDTPRPLVGRLIHQLLTDIGRYHPQALIYPLTVASKSTTTARHNAANKILKNMCEHSNTLVQQAMMVSEELIRVAILWHEMWHEGLEEASRLYFGERNVKGMFEVLEPLHAMMERGPQTLKETSFNQAYGRDLMEAQEWCRKYMKSGNVKDLTQAWDLYYHVFRRISKQLPQLTSLELQYVSPKLLMCRDLELAVPGTYDPNQPIIRIQSIAPSLQVITSKQRPRKLTLMGSNGHEFVFLLKGHEDLRQDERVMQLFGLVNTLLANDPTSLRKNLSIQRYAVIPLSTNSGLIGWVPHCDTLHALIRDYREKKKILLNIEHRIMLRMAPDYDHLTLMQKVEVFEHAVNNTAGDDLAKLLWLKSPSSEVWFDRRTNYTRSLAVMSMVGYILGLGDRHPSNLMLDRLSGKILHIDFGDCFEVAMTREKFPEKIPFRLTRMLTNAMEVTGLDGNYRITCHTVMEVLREHKDSVMAVLEAFVYDPLLNWRLMDTNTKGNKRSRTRTDSYSAGQSVEILDGVELGEPAHKKTGTTVPESIHSFIGDGLVKPEALNKKAIQIINRVRDKLTGRDFSHDDTLDVPTQVELLIKQATSHENLCQCYIGWCPFW
phosphorylation of 4E-BP1 (pS65) in vitro [1]: to a lesser extent than mTORα | duration of the G1 phase [2]: shorter | complex formation with exogenously expressed Raptor, Rictor, and GβL [3]: form specific complexes | cell survival after serum starvation [4]: protected cells from starvation induced cell death | recovery from Sorbitol-induced stress [5]: much faster | c-Myc protein level [6]: significant increase | cell oncogenic potential (colonies in agarose) [7]: increase in cell oncogenic potential | phosphorylation of S6K1 (pT389) in vitro [8]: to a lesser extent than mTORα | proliferation rate in comparison to control (EGFP) cells ([9]; overexpressing stable lines grown 5 days): approximately 1.6 times faster | proliferation compared to control (EGFP) cells ([9]; overexpressing stable lines grown 7 days): proliferate faster
